The results in this text go back to patent US20020146750A1 (published 2002).

Changes are numbered by the printed parent chain.

The target in the test is T1, MUC1 60-mer peptide NH2-(…)3-COOH (biotinylated in the ELISAs and selections).
T1 construct: also called biotinylated MUC1 60-mer
Kind of test: ELISA, soluble Fab, biotinylated MUC1 60-mer; relative signal. Here is the method: Soluble Fabs were produced as described (Roovers et al., Br. J. Cancer, 78: 1407-16 (1998)). ELISAs were performed as described by Henderikx et al. (Cancer Res., 58: 4324-4332 (1998)), except the biotinylated MUC1 60-mer was used. The selected PH1 and the affinity-matured antibodies were evaluated for affinity by surface plasmon resonance (SPR) on a BIAcore 2000 apparatus (BIAcore AB, Uppsala, Sweden). Channels of a biotin chip were coated with a MUC1 15-mer, containing the minimal PH1 epitope, PAP, (Ac-PDTRPAPGSTAPPAL-NH₂, (SEQ ID NO:40) 50 RU or 320 RU) or a 60-mer (NH₂-([…])₃-COOH (i.e., containing three copies of SEQ ID NO:8 (von Mensdorff-Pouilly et al., Tumor Biol., 19: 186-195 (1998), 50 RU) in HBS-EP buffer (Pharmacia). One surface was blocked with biotin (15 RU) and used as a negative control. The antibodies were injected in HBS-EP buffer. To minimize rebinding of the antigen binding fragments, the flow speed was 30 μl/sec. Affinity calculation was performed with the BIA-evaluation software provided by the BIAcore. The affinities of the Fabs were calculated according to a 1:1 stoichiometry at steady state.

T1 sequence (peptide, as listed by the source): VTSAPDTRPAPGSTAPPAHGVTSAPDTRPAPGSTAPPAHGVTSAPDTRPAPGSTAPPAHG

B1: 3A7 (Fab, V domains shown)
VH: QVQLVQSGGGLVQPGGSLRLSCAASGFTFRSNAMGWVRQAPGKGLEWVSGISGSGGSTYYADSVKGRFTISRDNSKNTLYLQMNSLRAEDTAVYYCAKHTGGGVWDPIDKWGQGTLVTVSS
VL: EIVLTQSPLSLPVTPGEPASISCRSSQSLLHSNGYTYLDWYLQKPGQSPQLLIYSGSHRASGVPDRFSGSVSGTDFTLRISRVEAEDVGVYYCMQGLQSPFTFGPGTKVDIKR
notes: PH1 Fab variant
B1: the binding result is “binds”.

B2: 7F3 (Fab, V domains shown)
VH: B1 VH with K98I, D109K, K110Y
VL: B1 VL
notes: PH1 Fab variant; also called clone 7F3
In the case of B2, the binding result is “binds”.

B3: 6F4 (Fab, V domains shown)
VH: B1 VH with A97S, D109G, K110Y
VL: B1 VL
notes: PH1 Fab variant
Consider B3, for which the binding result is reported as “binds”.

B4: 10E1 (Fab, V domains shown)
VH: B1 VH with D109A, K110Y
VL: B1 VL
notes: PH1 Fab variant
In the case of B4, the binding result is reported as “binds”.

B5: 6B5 (Fab, V domains shown)
VH: B1 VH with D109A, K110Y
VL: B1 VL
notes: PH1 Fab variant
Turning to B5, the binding result is listed as “binds”.

B6: 6C10 (Fab, V domains shown)
VH: B1 VH with D109H, K110Y
VL: B1 VL
notes: PH1 Fab variant
For the molecule B6, the binding result is “binds”.

B7: 11F7 (Fab, V domains shown)
VH: B1 VH with G102V, I108M, D109N, K110Y
VL: B1 VL
notes: PH1 Fab variant
With B7, the binding result is given as “binds”.

B8: 11D4 (Fab, V domains shown)
VH: B1 VH with I108M, D109A, K110S
VL: B1 VL
notes: PH1 Fab variant
Turning to B8, the binding result is on record as “binds”.

B9: 3B9 (Fab, V domains shown)
VH: B1 VH with I108L, D109G, K110Y
VL: B1 VL
notes: PH1 Fab variant
Turning to B9, the binding result was “binds”.

B10: 6C8 (Fab, V domains shown)
VH: B1 VH with D109N, K110D
VL: B1 VL
notes: PH1 Fab variant
Regarding B10, the binding result was “binds”.

B11: 10F9 (Fab, V domains shown)
VH: B1 VH with D106N, D109G, K110H
VL: B1 VL
notes: PH1 Fab variant
As for B11, the binding result is “binds”.

B12: 10F3 (Fab, V domains shown)
VH: B1 VH with D109V, K110P
VL: B1 VL
notes: PH1 Fab variant
B12: the binding result is reported as “binds”.

B13: 3D7 (Fab, V domains shown)
VH: B1 VH with G102A, K110Y
VL: B1 VL
notes: PH1 Fab variant
Regarding B13, the binding result is on record as “binds”.

B14: 6C5 (Fab, V domains shown)
VH: B1 VH with A97V, D109V, K110Y
VL: B1 VL
notes: PH1 Fab variant
B14: the binding result is reported as “binds”.

B15: 5A6 (Fab, V domains shown)
VH: B1 VH with A97V, K110Y
VL: B1 VL
notes: PH1 Fab variant
As for B15, the binding result was “binds”.

B16: 3D1 (Fab, V domains shown)
VH: B1 VH with K98Q, D109G, K110Y
VL: B1 VL
notes: PH1 Fab variant
Consider B16, for which the binding result is listed as “binds”.

B17: 10E10 (Fab, V domains shown)
VH: B1 VH with D106N, K110Y
VL: B1 VL
notes: PH1 Fab variant
For the molecule B17, the binding result is given as “binds”.

B18: 11F4 (Fab, V domains shown)
VH: B1 VH with D109S, K110S
VL: B1 VL
notes: PH1 Fab variant
Regarding B18, the binding result is “binds”.

B19: 6A9 (Fab, V domains shown)
VH: B1 VH with G102S, D109N, K110Y
VL: B1 VL
notes: PH1 Fab variant
Regarding B19, the binding result is “binds”.

B20: 3E2 (Fab, V domains shown)
VH: B1 VH with D109A, K110Y
VL: B1 VL
notes: PH1 Fab variant
Regarding B20, the binding result was “binds”.

B21: 10B3 (Fab, V domains shown)
VH: B1 VH with D109G, K110Y
VL: B1 VL
notes: PH1 Fab variant
For the molecule B21, the binding result is “binds”.

B22: 11B9 (Fab, V domains shown)
VH: B1 VH with K98R, D109N, K110Y
VL: B1 VL
notes: PH1 Fab variant
Turning to B22, the binding result is listed as “binds”.

B23: 11F2 (Fab, V domains shown)
VH: B1 VH with K98I, G102A, D109R, K110Y
VL: B1 VL
notes: PH1 Fab variant
As for B23, the binding result is on record as “binds”.

B24: 8F5 (Fab, V domains shown)
VH: B1 VH with D109A, K110Y
VL: B1 VL
notes: PH1 Fab variant
With B24, the binding result is listed as “binds”.

B25: 6B3 (Fab, V domains shown)
VH: B1 VH with D109G, K110H
VL: B1 VL
notes: PH1 Fab variant
Turning to B25, the binding result was “binds”.

B26: 3F7 (Fab, V domains shown)
VH: B1 VH with D109Y, K110Y
VL: B1 VL
notes: PH1 Fab variant
As for B26, the binding result is “binds”.

B27: 11C1 (Fab, V domains shown)
VH: B1 VH with G102E, D109K, K110Y
VL: B1 VL
notes: PH1 Fab variant
Regarding B27, the binding result is listed as “binds”.

B28: 6E4 (Fab, V domains shown)
VH: B1 VH with I108V, K110Y
VL: B1 VL
notes: PH1 Fab variant
B28: the binding result is given as “binds”.

B29: 3G1 (Fab, V domains shown)
VH: B1 VH with K110D
VL: B1 VL
notes: PH1 Fab variant
As for B29, the binding result is “binds”.

B30: 3F4 (Fab, V domains shown)
VH: B1 VH with D109A, K110N
VL: B1 VL
notes: PH1 Fab variant
Take B30: the binding result is recorded as “binds”.

B31: 3H2 (Fab, V domains shown)
VH: B1 VH with I108M, K110Y
VL: B1 VL
notes: PH1 Fab variant
As to B31, the binding result is on record as “binds”.

B32: 10F8 (Fab, V domains shown)
VH: B1 VH with I108M, D109H, K110Y
VL: B1 VL
notes: PH1 Fab variant
Turning to B32, the binding result is given as “binds”.

B33: 10A9 (Fab, V domains shown)
VH: B1 VH with D109H, K110N
VL: B1 VL
notes: PH1 Fab variant
For the molecule B33, the binding result is “binds”.

B34: 7B5 (Fab, V domains shown)
VH: B1 VH with D109A, K110Y
VL: B1 VL
notes: PH1 Fab variant
As to B34, the binding result was “binds”.

B35: 3B8 (Fab, V domains shown)
VH: B1 VH with G102A, K110Y
VL: B1 VL
notes: PH1 Fab variant
Turning to B35, the binding result is listed as “binds”.

B36: 3F3 (Fab, V domains shown)
VH: B1 VH with G102R, K110Y
VL: B1 VL
notes: PH1 Fab variant
With B36, the binding result was “binds”.

B37: 6B6 (Fab, V domains shown)
VH: B1 VH with D109G, K110Y
VL: B1 VL
notes: PH1 Fab variant
For the molecule B37, the binding result is “binds”.

B38: 7D1 (Fab, V domains shown)
VH: B1 VH with D109K, K110H
VL: B1 VL
notes: PH1 Fab variant; also called clone 7D1
Take B38: the binding result is reported as “binds”.

B39: 10C10 (Fab, V domains shown)
VH: B1 VH with G102V, D109K, K110Y
VL: B1 VL
notes: PH1 Fab variant
As for B39, the binding result is listed as “binds”.

B40: 3H1 (Fab, V domains shown)
VH: B1 VH with I108F, D109A, K110Y
VL: B1 VL
notes: PH1 Fab variant
Turning to B40, the binding result is “binds”.
